Test results from US20250179176A1, “ANTI-TIGIT ANTIBODIES AND USES OF THE SAME” (ARCUS BIOSCIENCES, INC., priority 2022, published 2025).

Columns and labels:
Human TIGIT (human) = Human TIGIT (human) (UniProt Q495A1); assay: flow cytometry receptor occupancy on patients' whole blood, competitive anti-TIGIT antibody MBSA43 as detector, Q2W dosing
human FcγR3A (human) = human FcγR3A (human) (UniProt P08637); assay: ELISA, FcγR3A coated on plate, anti-human IgG HRP, chemiluminescence
Sequence of human FcγR3A (human) (P08637 17-208 limits assumed): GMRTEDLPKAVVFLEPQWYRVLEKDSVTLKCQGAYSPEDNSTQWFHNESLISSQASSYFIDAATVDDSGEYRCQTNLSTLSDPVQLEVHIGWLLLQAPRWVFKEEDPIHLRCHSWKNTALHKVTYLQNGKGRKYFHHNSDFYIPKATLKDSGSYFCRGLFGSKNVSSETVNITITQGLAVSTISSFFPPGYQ

Sequence of Human TIGIT (human) (Q495A1 other isoform, or with tags, fused parts or gaps): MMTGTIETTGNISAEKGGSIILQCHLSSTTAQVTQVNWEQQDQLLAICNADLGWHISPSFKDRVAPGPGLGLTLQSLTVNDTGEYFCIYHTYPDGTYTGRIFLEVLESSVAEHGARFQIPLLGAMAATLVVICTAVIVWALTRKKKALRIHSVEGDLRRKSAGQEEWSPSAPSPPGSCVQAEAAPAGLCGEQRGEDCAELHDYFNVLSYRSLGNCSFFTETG

domvanalimab (antibody)
receptor occupancy (RO) (Human TIGIT (human)): > 98% | percent of the binding of human IgG1 to the same receptor (human FcγR3A (human)): 20%
